What was measured:
[1] = target: Allochromatium vinosum DsrC Cys100Ser (Allochromatium vinosum); experiment: SEC
[2] = target: Allochromatium vinosum DsrC, wild type, recombinant with amino-terminal His tag (Allochromatium vinosum); experiment: SEC

stoichiometry N [1]	stoichiometry N [2]	Substance
2	–	Allochromatium vinosum DsrC Cys100Ser (natural protein)
–	2	Allochromatium vinosum DsrC, wild type, recombinant with amino-terminal His tag (natural protein)

From paper PMC2637153
